According to US20180222961A1 (IMMATICS BIOTECHNOLOGIES, published 2018):

Target: T1, HLA-B*07:02 (human)
T1 construct: also called peptide-receptive MHC molecules
Assay: UV-exchange b2m ELISA; exchange-yield grade
Excerpt: Candidate peptides for T cell based therapies according to the present invention were further tested for their MHC binding capacity (affinity). The individual peptide-MHC complexes were produced by UV-ligand exchange, where a UV-sensitive peptide is cleaved upon UV-irradiation, and exchanged with the peptide of interest as analyzed. Only peptide candidates that can effectively bind and stabilize the peptide-receptive MHC molecules prevent dissociation of the MHC complexes. To determine the yield of the exchange reaction, an ELISA was performed based on the detection of the light chain (β2m) of stabilized MHC complexes. The assay was performed as generally described in Rodenko et al. (Rodenko et al., 2006).
96 well MAXISorp plates (NUNC) were coated over night with 2 ug/ml streptavidin in PBS at room temperature, washed 4× and blocked for 1 h at 37° C. in 2% BSA containing blocking buffer. Refolded HLA-A*02:01/MLA-001 monomers served as standards, covering the range of 15-500 ng/ml. Peptide-MHC monomers of the UV-exchange reaction were diluted 100-fold in blocking buffer. Samples were incubated for 1 h at 37° C., washed four times, incubated with 2 ug/ml HRP conjugated anti-β2m for 1 h at 37° C., washed again and detected with TMB solution that is stopped with […]. Absorption was measured at 450 nm. Candidate peptides that show a high exchange yield (preferably higher than 50%, most preferred higher than 75%) are generally preferred for a generation and production of antibodies or fragments thereof, and/or T cell receptors or fragments thereof, as they show sufficient avidity to the MHC molecules and prevent dissociation of the MHC complexes.

B1: SPNEFYFTV (peptide)
peptide: SPNEFYFTV
peptide exchange yield: 50 to 75%

B2: MPSLSEAMTSF (peptide)
peptide: MPSLSEAMTSF
peptide exchange yield: 50 to 75%

B3: VPTPVFPTM (peptide)
peptide: VPTPVFPTM
peptide exchange yield: 20 to 50%

B4: MPNSAIPFSM (peptide)
peptide: MPNSAIPFSM
peptide exchange yield: 50 to 75%

B5: SPTHVTQSL (peptide)
peptide: SPTHVTQSL
peptide exchange yield: 50 to 75%

B6: SPSPVPTTL (peptide)
peptide: SPSPVPTTL
peptide exchange yield: 50 to 75%

B7: FPHSEMTTL (peptide)
peptide: FPHSEMTTL
peptide exchange yield: 50 to 75%

B8: FPHSEMTTV (peptide)
peptide: FPHSEMTTV
peptide exchange yield: 50 to 75%

B9: SPMHDRWTF (peptide)
peptide: SPMHDRWTF
peptide exchange yield: 50 to 75%

B10: HVTKTQATF (peptide)
peptide: HVTKTQATF
peptide exchange yield: 20 to 50%

B11: HPVETSSAL (peptide)
peptide: HPVETSSAL
peptide exchange yield: 50 to 75%

B12: TAKTPDATF (peptide)
peptide: TAKTPDATF
peptide exchange yield: 20 to 50%

B13: HPDPVGPGL (peptide)
peptide: HPDPVGPGL
peptide exchange yield: 20 to 50%

B14: SPAMTTPSL (peptide)
peptide: SPAMTTPSL
peptide exchange yield: 50 to 75%

B15: IPTYGRTF (peptide)
peptide: IPTYGRTF
peptide exchange yield: 50 to 75%

B16: MPLTTGSQGM (peptide)
peptide: MPLTTGSQGM
peptide exchange yield: 20 to 50%

B17: FPHSEMTTVM (peptide)
peptide: FPHSEMTTVM
peptide exchange yield: 50 to 75%

B18: LPEQTPLAF (peptide)
peptide: LPEQTPLAF
peptide exchange yield: 20 to 50%

B19: TPLATTQRFTY (peptide)
peptide: TPLATTQRFTY
peptide exchange yield: 20 to 50%

B20: TPSVVTEGF (peptide)
peptide: TPSVVTEGF
peptide exchange yield: 20 to 50%

B21: FPYSEVTTL (peptide)
peptide: FPYSEVTTL
peptide exchange yield: 50 to 75%

B22: NPIGDTGVKF (peptide)
peptide: NPIGDTGVKF
peptide exchange yield: 50 to 75%

B23: LPWDTSTTLF (peptide)
peptide: LPWDTSTTLF
peptide exchange yield: 50 to 75%

B24: SPSTIKLTM (peptide)
peptide: SPSTIKLTM
peptide exchange yield: 50 to 75%

B25: FPFVTGSTEM (peptide)
peptide: FPFVTGSTEM
peptide exchange yield: 20 to 50%

B26: LPTSESLVSF (peptide)
peptide: LPTSESLVSF
peptide exchange yield: 20 to 50%

B27: VPYRVVGL (peptide)
peptide: VPYRVVGL
peptide exchange yield: 20 to 50%

B28: AAASPLLLL (peptide)
peptide: AAASPLLLL
peptide exchange yield: 20 to 50%

B29: TPLATTQRF (peptide)
peptide: TPLATTQRF
peptide exchange yield: 20 to 50%

B30: LPAGTTGSLVF (peptide)
peptide: LPAGTTGSLVF
peptide exchange yield: 50 to 75%

B31: SPSVSSNTY (peptide)
peptide: SPSVSSNTY
peptide exchange yield: 20 to 50%

B32: GPRNAQRVL (peptide)
peptide: GPRNAQRVL
peptide exchange yield: 50 to 75%

B33: NVLTSTPAF (peptide)
peptide: NVLTSTPAF
peptide exchange yield: 20 to 50%

B34: SPALHIGSV (peptide)
peptide: SPALHIGSV
peptide exchange yield: 50 to 75%

B35: SPMDTFLLI (peptide)
peptide: SPMDTFLLI
peptide exchange yield: 20 to 50%

B36: SPDPSKHLL (peptide)
peptide: SPDPSKHLL
peptide exchange yield: 20 to 50%

B37: LPEISTRTM (peptide)
peptide: LPEISTRTM
peptide exchange yield: 20 to 50%

B38: IPRNPPPTLL (peptide)
peptide: IPRNPPPTLL
peptide exchange yield: 50 to 75%

B39: NPSSTTTEF (peptide)
peptide: NPSSTTTEF
peptide exchange yield: 50 to 75%

B40: FPHPEMTTSM (peptide)
peptide: FPHPEMTTSM
peptide exchange yield: 50 to 75%

B41: SPAETSTNM (peptide)
peptide: SPAETSTNM
peptide exchange yield: 50 to 75%

B42: EPVTSSLPNF (peptide)
peptide: EPVTSSLPNF
peptide exchange yield: 20 to 50%

B43: RPRSPAGQVAAA (peptide)
peptide: RPRSPAGQVAAA
peptide exchange yield: 50 to 75%

B44: FPAMTESGGMIL (peptide)
peptide: FPAMTESGGMIL
peptide exchange yield: 50 to 75%

B45: LPLDTSTTL (peptide)
peptide: LPLDTSTTL
peptide exchange yield: 50 to 75%

B46: RPRALRDLRIL (peptide)
peptide: RPRALRDLRIL
peptide exchange yield: 50 to 75%

B47: FPFNPLDF (peptide)
peptide: FPFNPLDF
peptide exchange yield: 20 to 50%

B48: FPNRLNLEA (peptide)
peptide: FPNRLNLEA
peptide exchange yield: 50 to 75%

B49: RPMPNLRSV (peptide)
peptide: RPMPNLRSV
peptide exchange yield: 50 to 75%

B50: RPRSPAGQVA (peptide)
peptide: RPRSPAGQVA
peptide exchange yield: 50 to 75%

B51: LPLGTSMTF (peptide)
peptide: LPLGTSMTF
peptide exchange yield: 50 to 75%

B52: SPLVTSHIM (peptide)
peptide: SPLVTSHIM
peptide exchange yield: 50 to 75%

B53: LPTQTTSSL (peptide)
peptide: LPTQTTSSL
peptide exchange yield: 50 to 75%

B54: SPVPVTSLF (peptide)
peptide: SPVPVTSLF
peptide exchange yield: 50 to 75%

B55: SPLPVTSLI (peptide)
peptide: SPLPVTSLI
peptide exchange yield: 50 to 75%

B56: SPLPVTSLL (peptide)
peptide: SPLPVTSLL
peptide exchange yield: 50 to 75%

B57: HPKTESATPAAY (peptide)
peptide: HPKTESATPAAY
peptide exchange yield: 20 to 50%

B58: LPSVSGVKTTF (peptide)
peptide: LPSVSGVKTTF
peptide exchange yield: 20 to 50%

B59: VPSEIDAAF (peptide)
peptide: VPSEIDAAF
peptide exchange yield: 20 to 50%

B60: FPMSPVTSV (peptide)
peptide: FPMSPVTSV
peptide exchange yield: 50 to 75%

B61: PGGTRQSL (peptide)
peptide: PGGTRQSL
peptide exchange yield: 10 to 20%

B62: LYVDGFTHW (peptide)
peptide: LYVDGFTHW
peptide exchange yield: 20 to 50%

B63: GPFPLVYVL (peptide)
peptide: GPFPLVYVL
peptide exchange yield: 50 to 75%

B64: SPAEPSVYATL (peptide)
peptide: SPAEPSVYATL
peptide exchange yield: > 75%

B65: YPGLRGSPM (peptide)
peptide: YPGLRGSPM
peptide exchange yield: 50 to 75%

B66: RPRSPAGQVAA (peptide)
peptide: RPRSPAGQVAA
peptide exchange yield: 50 to 75%

B67: TPTKETVSL (peptide)
peptide: TPTKETVSL
peptide exchange yield: 50 to 75%
